Experimental data published in patent US20160333061A1.
Each block holds one substance with its values, some of them ahead of it.

How the values were obtained:
Experiment in all cases: cell-based or functional assay
[1] = target: CytERM-EBFP2 (Aequorea victoria (Water jellyfish) (Mesonema victoria)) [GFP: P42212]
[2] = target: CytERM-moxBFP (Aequorea victoria (Water jellyfish) (Mesonema victoria)) [GFP: P42212]
CytERM-mTagBFP = target: CytERM-mTagBFP

% Cells with OSER Structures (n = cells) [1]: 63.7%
Substance: CytERM-EBFP2 (from UniProt P42212 2-238)

% Cells with OSER Structures (n = cells) [2]: 0.9%
Substance: CytERM-moxBFP (from UniProt P42212 2-238)

% Cells with OSER Structures (n = cells) (CytERM-mTagBFP): 43.5%
Substance: CytERM-mTagBFP
